Values joined by “and” are separate entries in the source; they are usually repeats but may differ in a detail not shown here. Identical values can stand only once.

The values below come from patent publication US20170107289A1 (SORRENTO THERAPEUTICS, published 2017).

One test concerns the target GST protein (UniProt P08515 1-218 = GST). The experiment in a line: SPR (Biacore T200), antibody captured on anti-human Fc. Background: Surface plasmon resonance follows binding to a sensor surface in real time, without labels.
Test [1] addresses T1, STAT3 in fixed or permeabilized human tumour cells (U251 glioblastoma); MDA-MB-468 / MDA-MB-435 breast cancer … (human, UniProt P40763 2-770).
T1 construct: whole, on cells; STAT3 is intracellular and the cells were permeabilized; also called cellular antigens; cellular targets
The test can be described thus: flow cytometry (HTFC) on permeabilized U251 cells; PE anti-human IgG; MFI. How it is done: After 45 minutes at room temperature, cells were washed twice and incubated with phycoerythrin (PE) conjugated-anti-human IgG for 20 minutes at room temperature in the dark. Cells were then washed and analyzed by high throughput flow cytometry (HTFC). The results are shown in FIG. 9 for assessment of antibody binding to cellular antigens in U251 cells.
For orientation: A flow cytometer gives signals particle by particle.

In test [2] the target is T2, recombinant human STAT3 proteins (human, UniProt P40763 1-770, limits assumed).
T2 construct: It may be the same STAT3-GST as in the Biacore assay
T2 sequence (P40763 whole entry): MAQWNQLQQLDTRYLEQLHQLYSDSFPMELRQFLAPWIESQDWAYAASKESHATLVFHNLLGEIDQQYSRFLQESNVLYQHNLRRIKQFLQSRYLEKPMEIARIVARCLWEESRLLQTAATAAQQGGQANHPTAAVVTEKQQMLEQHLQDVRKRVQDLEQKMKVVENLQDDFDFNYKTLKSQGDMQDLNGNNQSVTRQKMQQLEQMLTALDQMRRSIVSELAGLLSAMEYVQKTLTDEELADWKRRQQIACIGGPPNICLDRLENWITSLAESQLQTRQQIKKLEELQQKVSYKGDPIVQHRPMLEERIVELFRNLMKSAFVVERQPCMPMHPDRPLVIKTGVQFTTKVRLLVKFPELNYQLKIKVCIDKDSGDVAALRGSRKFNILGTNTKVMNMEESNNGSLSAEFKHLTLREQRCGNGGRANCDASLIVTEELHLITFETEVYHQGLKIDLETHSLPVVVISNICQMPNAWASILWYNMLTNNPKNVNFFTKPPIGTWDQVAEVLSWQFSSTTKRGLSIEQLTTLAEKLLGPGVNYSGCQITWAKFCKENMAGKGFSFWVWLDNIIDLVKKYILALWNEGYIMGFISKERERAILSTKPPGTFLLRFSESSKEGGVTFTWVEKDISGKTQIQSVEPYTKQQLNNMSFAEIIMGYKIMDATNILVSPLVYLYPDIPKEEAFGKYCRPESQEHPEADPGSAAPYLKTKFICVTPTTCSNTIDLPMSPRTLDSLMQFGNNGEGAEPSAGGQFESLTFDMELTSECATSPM
The experiment in a line: ELISA on recombinant human STAT3 (sheet title 'STAT 3 binding'); Abs 450. On the technique in general: ELISA stands for enzyme-linked immunosorbent assay.

For test [3], the target named is T3, Recombinant human STAT3-GST (human, UniProt P40763 1-770).
T3 construct: The order of STAT3 and GST follows the printed name 'STAT3-GST' only; not shown: GST (glutathione S-transferase) tag
T3 sequence (P40763 whole entry): as above
The experiment in a line: SPR (Biacore T200), antibody captured on anti-human Fc, STAT3-GST as analyte, 1:1 model. How it is done: Anti-human Fc antibody (GE, BR-1008-39) was immobilized on a CMS sensor chip to approximately 1000 RU using standard NHS/EDC coupling methodology. Antibodies (approximately 10 ug/ml) were captured for 60 seconds at a flow rate of 10 ul/min Recombinant human STAT3-GST was serially diluted 2-fold into running buffer (HBS-EP+, starting from […]). All measurements were conducted at a flow rate of 30 ul/min Surfaces were regenerated with 3M MgCl₂ (from human antibody kit) for 60 seconds. A 1:1 (Langmuir) binding model was used to fit the data.

The target in test [4] is T1, STAT3 in fixed or permeabilized human …. The experiment in a line: flow cytometry on fixed, methanol-permeabilized U251 cells; PE anti-human IgG; MFI (FL-2). The protocol:
(§1) Next, the binding of the candidate anti-STAT3 antibodies to cellular targets was tested in cell binding assays using MDA-MB-435 breast cancer cells and U251 cells. The cells were seeded overnight in a 96 well plate, then fixed with PFA and permeabilized with methanol. Cells were incubated with serial dilutions of the anti-STAT3 antibody candidates ST1A5, ST3G12 and ST5G12 for one hour and 30 minutes. Following incubation, the cells were washed and incubated for 30 minutes with phycoerythrin (PE) conjugated anti-human IgG. Fluorescence was measured on an Intellicyte high-throughput flow cytometry analyzer. […] Bevacizumab (Avastin), a monoclonal antibody that inhibits vascular endothelial growth factor A (VEGF-A) was used as a negative control. As shown in FIG. 8A and FIG. 8B, the anti-STAT3 antibodies ST5G12 and ST3G12 both bound STAT3, with ST5G12 being an especially strong binder.

Test [5] deals with T2, recombinant human STAT3 proteins. The experiment in a line: STAT3 binding ELISA, Hu-IgG-FAB detection (sheet title; legend paragraph 22 says 'to human IgG'); OD 450 nm; the EC50 column has no unit, x axis in ng/ml.
The target is the same in test [6]. The experiment in a line: 'Binding ELISA, Hu-IgO Detection' (sheet title, 01052015), Superblock as blocking buffer; coated antigen not named, taken as STAT3 by analogy with the title of FIG. 10; OD 450 nm; the EC50 row has no unit, x axis in ng/ml.
Test [7] shares this target. The test can be described thus: binding ELISA with Superblock as blocking buffer; coated antigen not named on the sheet (legend paragraph 30 says 'to human IgG'), taken as STAT3 by analogy with the title of FIG. 10; OD 450 nm; the EC50 row has no unit, x axis in ng/ml.
Test [8] has the same target. The test can be described thus: 'Binding ELISA, Hu-IgO Detection' (sheet title), Superblock as blocking buffer; second column of the table taken as the curve labelled 901a; coated antigen not named, taken as STAT3; the EC50 row has no unit, x axis in ng/ml.
Test [9] has the same target. The experiment in a line: binding ELISA with Superblock as blocking buffer; second column of the table taken as the curve labelled 901a (only two curves, two columns); coated antigen not named on the sheet, taken as STAT3; the EC50 row has no unit, x axis in ng/ml.
Test [10] has as its target T1, STAT3 in fixed or permeabilized human …. The test can be described thus: flow cytometry on fixed, methanol-permeabilized MDA-MB-468 cells (sheet title; legend paragraph 19 says MDA-MB-435); PE anti-human IgG; MFI (FL-2). The protocol: as §1

T1 sequence (P40763 2-770): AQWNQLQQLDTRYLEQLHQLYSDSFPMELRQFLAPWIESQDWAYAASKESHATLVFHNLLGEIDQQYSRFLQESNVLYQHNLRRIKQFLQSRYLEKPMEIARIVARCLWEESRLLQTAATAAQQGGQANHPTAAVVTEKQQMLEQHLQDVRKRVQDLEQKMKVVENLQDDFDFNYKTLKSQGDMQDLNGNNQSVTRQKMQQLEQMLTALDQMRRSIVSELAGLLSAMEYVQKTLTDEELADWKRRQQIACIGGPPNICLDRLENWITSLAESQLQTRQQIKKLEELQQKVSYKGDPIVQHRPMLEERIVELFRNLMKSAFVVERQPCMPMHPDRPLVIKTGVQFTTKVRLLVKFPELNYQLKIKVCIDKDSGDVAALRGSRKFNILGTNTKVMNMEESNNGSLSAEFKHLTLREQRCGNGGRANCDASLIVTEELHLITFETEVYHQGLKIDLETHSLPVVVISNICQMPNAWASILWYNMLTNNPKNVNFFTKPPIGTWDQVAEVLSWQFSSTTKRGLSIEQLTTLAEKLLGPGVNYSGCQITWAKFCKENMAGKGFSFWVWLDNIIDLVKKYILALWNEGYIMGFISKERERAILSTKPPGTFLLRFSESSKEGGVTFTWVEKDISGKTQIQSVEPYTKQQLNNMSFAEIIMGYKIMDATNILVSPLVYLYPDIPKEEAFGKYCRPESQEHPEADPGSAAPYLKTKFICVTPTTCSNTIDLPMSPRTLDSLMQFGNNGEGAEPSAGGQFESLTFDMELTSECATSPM
Chain of GST protein (P08515 whole entry): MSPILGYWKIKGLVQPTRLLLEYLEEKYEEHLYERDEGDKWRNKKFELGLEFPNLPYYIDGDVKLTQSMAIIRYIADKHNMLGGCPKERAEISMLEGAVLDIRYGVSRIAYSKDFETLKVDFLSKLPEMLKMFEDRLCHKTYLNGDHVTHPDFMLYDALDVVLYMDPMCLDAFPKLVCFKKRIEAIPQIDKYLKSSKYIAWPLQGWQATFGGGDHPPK

B1: anti-STAT3 antibody ST3G12 (unmodified) (antibody, V domains shown)
VH: QVQLVQSGAEVKKPGASVKVSCKASGYTFTSYYMHWVRQAPGQGLEWMGIINPSGGSTSYAQKFQGRVTMTRDTSTSTVYMELSSLRSEDTAVYYCARSDYVHSFDIWGQGTMVTVSS
VL: QPVLTQPPSASALLGASIKLTCTLSSEHSTYTVEWYQQRPGRSPQYIMNVKSDGSYNKGDGIPDRFMGSSSGADRYLTFSNLQSDDEAEYHCGESHRIDGQVGVVFGGGTKLTVL
notes: also called naked anti-STAT3 ST3G12 antibody
For orientation: EC50 (read off the curve) means the concentration needed to bring the measured effect to its halfway point. A word on the Kd: it is a measure of binding affinity in units of concentration. For orientation: koff means the rate constant with which the complex falls apart. One may read the kon as the second-order rate constant of association. Broadly, the EC50 is the concentration at which the effect is half-maximal. B1: in the test with GST protein, the binding result is “no binding”. Further, the figures for the half-maximal effective concentration (EC50 (read off the curve)) in test [1], in test [2] and in test [4] were about 9 nM, about 0.06 mg/L and about 4 nM, respectively. For the same molecule, the Kd in test [3] worked out at 5.39 nM. Further, in test [3], the off-rate constant (koff) is 0.000322 s⁻¹. Further, the on-rate (kon) in [3] was 59700 M⁻¹ s⁻¹. Also, the values for the EC50 in [5], in test [6] and in test [7] were 0.155 mg/L, 0.0257 mg/L and 0.122 mg/L, respectively.

B2: compound 901a (ST3G12 conjugated to the phosphorothioate oligonucleotide, non-fluorescein version) (antibody, V domains shown)
VH: QVQLVQSGAEVKKPGASVKVSCKASGYTFTSYYMHWVRQAPGQGLEWMGIINPSGGSTSYAQKFQGRVTMTRDTSTSTVYMELSSLRSEDTAVYYCARSDYVHSFDIWGQGTMVTVSS
VL: QPVLTQPPSASALLGASIKLTCTLSSEHSTYTVEWYQQRPGRSPQYIMNVKSDGSYNKGDGIPDRFMGSSSGADRYLTFSNLQSDDEAEYHCGESHRIDGQVGVVFGGGTKLTVL
modifications: phosphorothioate oligonucleotide joined to the antibody through a linker; residue(s) and chain of attachment not stated
notes: also called ST3G12-PS
With B2, the binding result with GST protein was “no binding”. The “EC50 (read off the curve)” value in test [2] was ~0.06 mg/L and ~0.1 mg/L. In test [3], the Kd turned out to be 0.222 nM, the koff was found to be 0.00011 s⁻¹ and the association rate constant (kon) was 494000 M⁻¹ s⁻¹. Further, the EC50 in test [5] came out at 0.153 mg/L. Further, the EC50 in test [8] came out at 0.0643 mg/L. In [9], the EC50 amounted to 0.186 mg/L.

B3: anti-STAT3 antibody ST1A5 (antibody, V domains shown)
VH: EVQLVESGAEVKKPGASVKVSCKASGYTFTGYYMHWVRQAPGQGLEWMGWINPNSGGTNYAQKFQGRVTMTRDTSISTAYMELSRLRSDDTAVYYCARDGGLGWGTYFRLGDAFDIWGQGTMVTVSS
VL: QSVLTQPPSVSKGLRQTATLTCTGNSNNVGNEGAAWLQQHQGHPPKLLSYRNFNRPSGISERFSASRSGNTASLTITGLQPEDEADYYCSAWDSSLSAWVFGGGTKLTVL
notes: Human antibody; it was detected with anti-human IgG
For the molecule B3, the “EC50 (read off the curve)” value was about 8 nM in test [4] and about 6 nM in test [10].
